# Test results reported in article PMC6249252, “COMP and TSP-4 interact specifically with the novel GXKGHR motif only found in fibrillar collagens” (Scientific Reports, 2018).
# Read-outs that look alike come from different tables or passages of the source.
# Legend:
# [1] = CD spectroscopy thermal unfolding of collagen model peptides; assay type: physicochemical; details: CD spectroscopy at 210 nm, heated at 1 °C/min, approx. 0.1 mg/ml, 1 mm cell, 4 parameter logistic fit
# Protocol: CD spectra of the col2p5 peptide and its derivatives were measured using a Jasco J–715 equipped with a peltier-element cuvette cooler. The samples were heated at 1 °C/min in a 1 mm path length quartz cell at approx. 0.1 mg/ml. Thermal unfolding was measured in a range between 20 °C and 70–90 °C and specific ellipticity recorded at 210 nm ever 1 °C. Additionally, every 5 °C far-UV spectra (200–250 nm) were recorded in triplicates. Data was fitted with a 4 parameter logistic fit using Origin 2017[45].
# [2] = target: T1, COMP (Homo sapiens, UniProt P49747); assay: ELISA-style binding assay, COMP on coated collagen model peptides / collagen; details: for effect of additive in interaction buffer on COMP binding to peptide 5: peptide 5 coated, COMP in pure TBS-T with the indicated chemical compound, compared to pure TBS (Fig. 3b); for Kd: peptide or collagen coated at 10 µg/ml (500 ng per well) on ELISA plate, pentameric COMP at indicated concentrations, 1 h, room temperature, TBS-T with 0.25% BSA, anti-COMP antibody, four-parameter logistic fit, triplicates, read-out: Apparent KD
# Protocol: (§1) For ELISA-style binding assays, rat tail collagen I (BD Bioscience) or the indicated collagen model peptides were diluted in TBS and coated at 10 µg/ml (500 ng per well) overnight at 4 °C. Further steps were performed at room temperature. After washing with TBS-T (TBS containing 0.05% (vol/vol) Tween-20), plates were blocked for 1 h with 1% (wt/vol) BSA in TBS. Strep-tagged COMP was added at indicated concentrations in TBS-T containing 0.25% (wt/vol) BSA) and incubated for 1 h. For assays with addition of cations pure TBS-T was used as interaction buffer. After washing away unbound protein with TBS-T, bound COMP was detected with a 1:3000 dilution of a specific polyclonal antibody against bovine COMP in interaction buffer. The antibody was raised in rabbit against bovine COMP purified from articular cartilage and characterised before in various studies[46]–[48]. The TSP-4 antibody was raised in guinea pigs and was previously described and characterised[30],[49]. The primary antibodies were detected with an HRP–conjugated swine anti-rabbit (DAKO, P0399) or rabbit anti-guinea pig antibody (Sigma, A5545). Bound secondary antibodies were visualised with tetramethylbenzidine as substrate, the reaction was either measured directly at 370 nm or stopped with 10% H2SO4 and measured at 450 nm. Data were analysed using Origin 2017 and fitted using a four-parameter logistic model.
# [3] = target: T1, COMP; details: read-out: dissociation constant for COMP reported for collagen II; cited from earlier work
# Protocol: To elucidate the binding site of COMP on the collagen II helix we incubated pentameric COMP at 200 nM concentration with our generated collagen II foldon library (Fig. 2). […] To confirm our finding and get proper binding affinities we coated the peptide 5 and incubated it with indicated concentration of COMP (Fig. 3a). The dissociation constant for COMP and pep5 (19.3 ± 12 nM) was slightly higher than reported for collagen II (1.72 ± 0.16 nM)[10]. ...
# [4] = Dynamic light scattering of COMP solution with ZnCl; assay type: physicochemical; details: 20 °C, cumulant radius over time
# Protocol: Dynamic light scattering (DLS) was measured with a Wyatt DynaPro Nanostar using the disposable cuvettes (UVettes, Eppendorf). Data was acquired as a mean of 5 acquisitions, measured each for 5 s at a fixed temperature of 20 °C. The laser was set to auto-attenuation and the data analysed with the Dynamics software from Wyatt. Graph show the cumulant radius versus time for COMP with indicated ZnCl2 concentrations.
# [5] = target: TSP-4 (UniProt P35443); assay: ELISA-style binding assay, TSP-4 on coated GVKGHR foldon construct; details: GVKGHR foldon construct coated to ELISA plate, incubated with TSP4, anti-TSP4 antibody; fitted; triplicates
# Protocol: as §1
# T1 sequence (P49747 21-757): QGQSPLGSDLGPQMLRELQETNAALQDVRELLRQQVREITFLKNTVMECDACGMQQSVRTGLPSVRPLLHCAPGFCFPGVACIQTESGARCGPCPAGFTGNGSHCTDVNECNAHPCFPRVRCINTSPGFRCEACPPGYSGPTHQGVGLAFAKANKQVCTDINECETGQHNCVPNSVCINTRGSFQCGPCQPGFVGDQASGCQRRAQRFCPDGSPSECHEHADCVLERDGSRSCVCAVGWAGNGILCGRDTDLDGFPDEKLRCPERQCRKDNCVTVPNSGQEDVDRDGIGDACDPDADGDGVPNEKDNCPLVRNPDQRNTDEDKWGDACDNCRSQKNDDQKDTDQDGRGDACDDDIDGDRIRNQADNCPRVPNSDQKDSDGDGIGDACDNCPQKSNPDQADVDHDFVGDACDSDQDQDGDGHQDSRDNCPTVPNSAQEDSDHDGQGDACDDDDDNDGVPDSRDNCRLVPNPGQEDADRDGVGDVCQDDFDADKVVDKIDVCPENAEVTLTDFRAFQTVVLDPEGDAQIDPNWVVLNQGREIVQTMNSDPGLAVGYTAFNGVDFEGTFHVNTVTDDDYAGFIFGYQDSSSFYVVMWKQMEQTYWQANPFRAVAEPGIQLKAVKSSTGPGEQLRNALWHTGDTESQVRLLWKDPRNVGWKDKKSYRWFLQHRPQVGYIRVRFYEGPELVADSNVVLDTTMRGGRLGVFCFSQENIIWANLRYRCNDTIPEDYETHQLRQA
# Sequence of TSP-4 (P35443 27-961): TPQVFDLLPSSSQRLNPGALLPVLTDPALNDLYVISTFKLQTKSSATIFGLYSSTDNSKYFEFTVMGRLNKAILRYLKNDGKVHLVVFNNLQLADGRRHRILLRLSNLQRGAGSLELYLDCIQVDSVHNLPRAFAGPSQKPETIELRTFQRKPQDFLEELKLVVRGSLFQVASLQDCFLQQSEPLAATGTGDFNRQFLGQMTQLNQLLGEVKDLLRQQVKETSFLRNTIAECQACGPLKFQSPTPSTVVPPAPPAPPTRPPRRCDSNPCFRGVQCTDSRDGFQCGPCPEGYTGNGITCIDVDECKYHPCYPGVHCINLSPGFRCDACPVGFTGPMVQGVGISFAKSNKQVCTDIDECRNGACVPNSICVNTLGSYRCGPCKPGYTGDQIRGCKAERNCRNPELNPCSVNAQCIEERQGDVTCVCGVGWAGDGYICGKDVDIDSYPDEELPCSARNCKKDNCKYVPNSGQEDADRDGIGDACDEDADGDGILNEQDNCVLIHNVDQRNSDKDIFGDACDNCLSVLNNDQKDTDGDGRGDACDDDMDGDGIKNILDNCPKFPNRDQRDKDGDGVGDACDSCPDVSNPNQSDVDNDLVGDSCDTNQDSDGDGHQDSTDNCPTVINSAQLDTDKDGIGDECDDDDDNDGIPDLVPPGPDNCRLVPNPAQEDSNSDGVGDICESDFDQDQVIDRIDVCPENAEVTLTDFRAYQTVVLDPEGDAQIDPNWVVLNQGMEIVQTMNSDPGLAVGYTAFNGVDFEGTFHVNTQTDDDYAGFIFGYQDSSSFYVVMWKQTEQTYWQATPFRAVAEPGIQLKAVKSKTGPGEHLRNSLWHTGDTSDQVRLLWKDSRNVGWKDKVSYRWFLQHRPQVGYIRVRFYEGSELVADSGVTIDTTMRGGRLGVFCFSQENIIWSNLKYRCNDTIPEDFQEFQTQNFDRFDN
Kd [2] [nM],Compound,Melting point (°C) [1] [°C],also measured
2.26 ± 0.39,GLPGPKGHR,52.5 ± 0.6,
19.3 ± 12.4,"GARGFPGTPGLPGVKGHRGYPGLDGAK [peptide 5, E. coli expressed collagen II library peptide in NStrep-(GPP)6-GUEST-(GPP)6-foldon context]",36.1 ± 0.5,
4.1 ± 0.8,"GEAGEPGERGLKGHRGFTGLQGLPGPP [peptide 52, library peptide with the C-terminal GLKGHR motif of collagen II, foldon context]",,
1.61 ± 0.29,GVKGHR,56.5 ± 0.6,Kd [5]: 0.56 ± 0.05 nM

# The remaining lines, values behind:
Compound,Kd [2] [nM],Melting point (°C) [1] [°C],also measured
GLPGVKGHP,,47.9 ± 0.4,
"[Cl-].[Cl-].[Zn+2] [zinc, reference compound]",,,effect of additive in interaction buffer on COMP binding to peptide 5 [2]: increased the affinity towards the peptides
"collagen II: collagen II, literature value for COMP binding",,,Kd [3]: 1.72 ± 0.16 nM
"c1cnc2c(c1)ccc1cccnc12 [phenanthroline, 1,10-phenanthroline, reference compound]",,,effect of additive in interaction buffer on COMP binding to peptide 5 [2]: does not reduce the binding compared to pure TBS
"COMP: recombinant pentameric cartilage oligomeric matrix protein, Strep-tagged, expressed in HEK293 (EBNA) cells",,,hydrodynamic radius via DLS (aggregation) ([4]; 0.0 mM versus 0.1 mM ZnCl): could not detect any difference; hydrodynamic radius via DLS (aggregation) ([4]; addition of 1 mM ZnCl): starts to aggregate dramatically
GLPGVPGHR,,51.1 ± 0.3,
GLPGVKGHR [unique region of pep5 in N-Strep-(GPP)6-GUEST-(GPP)6-foldon context],,48.2 ± 0.6,"COMP binding to minimal motif peptides (ELISA signal) ([2]; COMP at 400 nM, one-point measurements (Fig. 4a), or at indicated concentrations (Fig. 4b)): sufficient for binding"
"O=C(O)CN(CCN(CC(=O)O)CC(=O)O)CC(=O)O [EDTA, reference compound]",,,effect of additive in interaction buffer on COMP binding to peptide 5 [2]: reduced the binding significantly
